Laboratory results as given in patent publication US20200255836.

Target: Cas9 (His-Cas9) (Streptococcus pyogenes) (UniProt Q99ZW2)
Assay: SPR
Details: Cas9 without guide; 20 mM Tris pH 8.0, 150 mM NaCl, 1 mM MgCl2

Sequence of Cas9 (His-Cas9) (Streptococcus pyogenes) (Q99ZW2 whole entry): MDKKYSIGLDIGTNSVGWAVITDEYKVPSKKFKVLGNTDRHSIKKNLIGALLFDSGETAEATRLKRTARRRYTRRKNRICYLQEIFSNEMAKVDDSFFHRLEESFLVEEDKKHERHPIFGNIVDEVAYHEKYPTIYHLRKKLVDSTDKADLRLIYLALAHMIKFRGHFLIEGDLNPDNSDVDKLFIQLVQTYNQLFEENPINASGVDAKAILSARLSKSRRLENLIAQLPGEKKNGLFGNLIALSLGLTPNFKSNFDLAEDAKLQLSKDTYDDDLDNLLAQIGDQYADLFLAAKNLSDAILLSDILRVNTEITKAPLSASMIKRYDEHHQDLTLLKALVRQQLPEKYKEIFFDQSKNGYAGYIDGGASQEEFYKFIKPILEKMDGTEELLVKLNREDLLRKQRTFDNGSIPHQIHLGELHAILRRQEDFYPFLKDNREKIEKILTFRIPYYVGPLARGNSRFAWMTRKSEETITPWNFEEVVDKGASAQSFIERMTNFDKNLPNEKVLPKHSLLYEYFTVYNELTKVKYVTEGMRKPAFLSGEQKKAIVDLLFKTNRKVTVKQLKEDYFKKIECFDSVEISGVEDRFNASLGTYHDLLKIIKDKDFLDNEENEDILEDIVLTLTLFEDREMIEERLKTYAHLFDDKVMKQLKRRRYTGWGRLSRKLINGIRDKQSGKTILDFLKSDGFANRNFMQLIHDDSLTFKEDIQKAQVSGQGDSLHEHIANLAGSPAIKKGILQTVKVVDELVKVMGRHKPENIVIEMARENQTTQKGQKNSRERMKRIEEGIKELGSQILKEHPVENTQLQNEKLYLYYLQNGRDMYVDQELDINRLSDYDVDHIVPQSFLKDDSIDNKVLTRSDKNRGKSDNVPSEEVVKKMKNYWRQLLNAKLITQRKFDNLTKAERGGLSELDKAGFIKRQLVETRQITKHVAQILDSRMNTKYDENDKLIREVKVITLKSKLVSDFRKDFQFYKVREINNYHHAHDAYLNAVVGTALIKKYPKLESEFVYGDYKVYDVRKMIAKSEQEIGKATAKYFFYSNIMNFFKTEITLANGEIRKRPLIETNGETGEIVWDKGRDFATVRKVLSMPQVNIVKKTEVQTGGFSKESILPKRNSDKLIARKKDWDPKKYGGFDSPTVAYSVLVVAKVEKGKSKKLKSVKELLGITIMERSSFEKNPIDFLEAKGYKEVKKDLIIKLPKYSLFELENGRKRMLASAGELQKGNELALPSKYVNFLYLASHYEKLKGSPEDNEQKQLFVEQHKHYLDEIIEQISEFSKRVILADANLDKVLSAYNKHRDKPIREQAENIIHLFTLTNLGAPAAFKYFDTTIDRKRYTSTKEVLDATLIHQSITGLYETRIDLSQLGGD

GAGGCTCTCACATCGGTAACGGTGTGAGAGCCTC [Tetra]
Kd: 8.79 µM
